Results published in the supplement of paper PMC10126150.
± gives the standard deviation of the averaged measurements.

System: ATP
Assay: switch fluorescence ratio, 500 uM ATP over buffer (Cy3 cluster intensity, sum of 5 cycles each) (fold (ratio)); higher = stronger signal-on switching upon ATP binding; sequences stand for … in TCGTCGGCAGCGTCAGATGTGTATAAGAGACAGTTTTTTTTTTTTTTTTTTTTTTTTT…TC
Conditions: aptamer strand: ATP DNA aptamer (quencher-CACCTGGGGGAGTATTGCGGAGGAAGG + anchor), 100 nM annealed; ATP concentration: 500 uM
Summary of the method: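 Clusters with intensities outside 100-1000 RFU were excluded. The remaining Cy3-labelled switching-strand clusters on a modified Illumina MiSeq flow-cell had been annealed to 100 nM quencher-labelled ATP aptamer and imaged in selection buffer, then after 15 min with 500 uM ATP at 22 °C, for five cycles separated by NaOH stripping and re-annealing. The fluorescence ratio, averaged per switch-domain sequence, is each cluster's summed target-cycle Cy3 intensity over its summed buffer-cycle Cy3 intensity.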
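Further: ATP exposure 15 min at 22 °C before imaging.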

Row | Sequence | switch fluorescence ratio
1 | TTTTGTCGTG | 0.95 ± 0.033
2 | TTTTGTCTGC | 0.98876 ± 0.00074
3 | TTTTGTGAAG | 0.963 ± 0.035
4 | TTTTGTGAGA | 1.026 ± 0.0075
5 | TTTTGTGAGT | 1.01 ± 0.04
6 | TTTTGTGCTG | 0.984 ± 0.052
7 | TTTTGTGCTT | 1.04 ± 0.074
8 | TTTTGTGGCG | 1.04 ± 0.033
9 | TTTTGTGGCT | 0.98 ± 0.02
10 | TTTTGTGGTC | 1.02 ± 0.017
11 | TTTTGTGTGC | 1.02 ± 0.022
12 | TTTTGTTCTT | 0.984 ± 0.012
13 | TTTTGTTTGA | 0.995 ± 0.01
14 | TTTTTAAGAC | 1.08 ± 0.086
15 | TTTTTAATCG | 1.01 ± 0.032
16 | TTTTTAATCT | 0.9902 ± 0.0083
17 | TTTTTAATGA | 1.02 ± 0.052
18 | TTTTTACAAG | 1.21 ± 0.3
19 | TTTTTACTAT | 1.002 ± 0.0057
20 | TTTTTAGAAA | 0.971 ± 0.011
21 | TTTTTAGCCA | 1.05 ± 0.024
22 | TTTTTAGCCG | 1.04 ± 0.075
23 | TTTTTAGCGA | 1.09 ± 0.058
24 | TTTTTAGCTT | 1.04 ± 0.028

Row | Sequence | switch fluorescence ratio
25 | TTTTTAGGGC | 1.02 ± 0.059
26 | TTTTTAGTGC | 1 ± 0.044
27 | TTTTTAGTTG | 1.12 ± 0.41
28 | TTTTTATAGC | 1.01 ± 0.044
29 | TTTTTATAT | 0.983 ± 0.031
30 | TTTTTATATT | 1.21 ± 0.44
31 | TTTTTATCA | 0.9798 ± 0.0082
32 | TTTTTATCAG | 0.977 ± 0.038
33 | TTTTTATGGA | 1.03 ± 0.027
34 | TTTTTATGGG | 1.03 ± 0.077
35 | TTTTTATTAA | 0.989 ± 0.033
36 | TTTTTATTG | 1.02 ± 0.018
37 | TTTTTCAGCC | 1.01 ± 0.046
38 | TTTTTCCCCT | 0.992 ± 0.023
39 | TTTTTCCGGC | 1.063 ± 0.0063
40 | TTTTTCGACG | 1.1 ± 0.21
41 | TTTTTCGTAT | 1.04 ± 0.044
42 | TTTTTCTAAC | 0.996 ± 0.016
43 | TTTTTCTATA | 0.994 ± 0.066
44 | TTTTTCTATG | 0.983 ± 0.05
45 | TTTTTCTCTT | 0.996 ± 0.021
46 | TTTTTCTGGA | 0.993 ± 0.021
47 | TTTTTCTTAT | 1 ± 0.041
48 | TTTTTGAACT | 1.01 ± 0.037

Row | Sequence | switch fluorescence ratio
49 | TTTTTGAAGA | 0.986 ± 0.046
50 | TTTTTGAGGG | 1.01 ± 0.04
51 | TTTTTGAGGT | 1 ± 0.025
52 | TTTTTGAGTT | 0.977 ± 0.032
53 | TTTTTGCGAT | 0.9982 ± 0.0046
54 | TTTTTGCGTC | 1.03 ± 0.059
55 | TTTTTGGAAC | 1.01 ± 0.023
56 | TTTTTGGAGC | 1.01 ± 0.016
57 | TTTTTGGGGC | 1.03 ± 0.072
58 | TTTTTGGTGC | 1.04 ± 0.03
59 | TTTTTGTATG | 1.02 ± 0.034
60 | TTTTTGTCAT | 0.9912 ± 0.0094
61 | TTTTTGTCGG | 0.996 ± 0.026
62 | TTTTTGTGCT | 0.996 ± 0.032
63 | TTTTTGTTAA | 1.01 ± 0.013
64 | TTTTTGTTCC | 1.08 ± 0.1
65 | TTTTTGTTTG | 0.985 ± 0.029
66 | TTTTTTAAAC | 0.996 ± 0.013
67 | TTTTTTAAGT | 0.995 ± 0.024
68 | TTTTTTAATG | 1 ± 0.033
69 | TTTTTTATGA | 1.03 ± 0.027
70 | TTTTTTATTC | 1.15 ± 0.29
71 | TTTTTTATTT | 0.996 ± 0.025
72 | TTTTTTCAGG | 1.03 ± 0.027

Row | Sequence | switch fluorescence ratio
73 | TTTTTTCCCG | 1.09 ± 0.11
74 | TTTTTTCCGG | 1.21 ± 0.17
75 | TTTTTTCCGT | 1.07 ± 0.16
76 | TTTTTTCCTG | 0.989 ± 0.011
77 | TTTTTTCGTT | 0.988 ± 0.022
78 | TTTTTTCTGG | 1 ± 0.091
79 | TTTTTTCTTC | 1.04 ± 0.011
80 | TTTTTTGCCG | 1.05 ± 0.14
81 | TTTTTTGCGA | 1.06 ± 0.079
82 | TTTTTTGCGC | 1.19 ± 0.29
83 | TTTTTTGCGT | 0.987 ± 0.047
84 | TTTTTTGCTC | 1.02 ± 0.033
85 | TTTTTTGGTA | 1.01 ± 0.036
86 | TTTTTTGGTC | 1.03 ± 0.037
87 | TTTTTTTACG | 1.06 ± 0.041
88 | TTTTTTTAGC | 1.03 ± 0.064
89 | TTTTTTTCAA | 1.01 ± 0.02
90 | TTTTTTTGAA | 0.979 ± 0.02
91 | TTTTTTTGAC | 1.01 ± 0.038
92 | TTTTTTTGGT | 0.996 ± 0.028
93 | TTTTTTTTCT | 1.02 ± 0.067
